Assay results taken from publication PMC10500007 (2023).

Columns and labels:
[1] = target: T1, human integrin αvβ6 (soluble, construct not stated) (human, UniProt P06756 31-1048; P18564 22-709); assay: BLI
T1 chain 1: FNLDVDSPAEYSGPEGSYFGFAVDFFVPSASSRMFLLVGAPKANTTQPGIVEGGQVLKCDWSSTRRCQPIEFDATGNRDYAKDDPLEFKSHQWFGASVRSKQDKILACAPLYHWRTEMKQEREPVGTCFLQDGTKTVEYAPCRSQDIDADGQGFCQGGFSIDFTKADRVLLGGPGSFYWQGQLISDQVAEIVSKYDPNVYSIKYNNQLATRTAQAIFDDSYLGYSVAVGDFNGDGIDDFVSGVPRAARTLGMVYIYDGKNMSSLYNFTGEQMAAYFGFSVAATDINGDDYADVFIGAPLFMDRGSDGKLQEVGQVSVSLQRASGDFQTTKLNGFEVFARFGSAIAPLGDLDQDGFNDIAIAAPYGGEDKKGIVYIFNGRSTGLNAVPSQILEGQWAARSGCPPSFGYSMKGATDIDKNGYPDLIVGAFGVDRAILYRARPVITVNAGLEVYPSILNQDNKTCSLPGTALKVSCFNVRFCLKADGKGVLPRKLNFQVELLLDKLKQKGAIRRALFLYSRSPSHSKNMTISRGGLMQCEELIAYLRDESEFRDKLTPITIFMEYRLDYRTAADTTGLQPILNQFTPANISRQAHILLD
T1 chain 2: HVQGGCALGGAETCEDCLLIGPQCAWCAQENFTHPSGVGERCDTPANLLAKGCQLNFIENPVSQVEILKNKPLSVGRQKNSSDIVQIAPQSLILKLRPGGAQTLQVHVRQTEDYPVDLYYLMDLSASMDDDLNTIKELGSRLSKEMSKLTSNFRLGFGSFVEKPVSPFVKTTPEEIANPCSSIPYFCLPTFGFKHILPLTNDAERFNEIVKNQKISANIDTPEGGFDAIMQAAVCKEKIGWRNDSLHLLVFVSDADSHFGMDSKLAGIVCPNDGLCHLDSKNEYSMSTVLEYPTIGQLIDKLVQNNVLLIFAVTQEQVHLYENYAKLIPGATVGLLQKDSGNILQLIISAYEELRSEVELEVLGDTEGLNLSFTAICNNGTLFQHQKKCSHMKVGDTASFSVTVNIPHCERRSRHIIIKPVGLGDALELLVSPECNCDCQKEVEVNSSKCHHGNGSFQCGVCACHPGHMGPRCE

[2] = target: recombinant human integrin αvβ6 headpiece (Expi293F) (human, UniProt P06756 31-429; P18564 130-371, I287C); assay: ELISA; competition with hLAP1
[3] = target: α5β1 (Homo sapiens); assay: BLI
[4] = target: T2, αvβ5 (Homo sapiens); assay: BLI
T2 chain 1: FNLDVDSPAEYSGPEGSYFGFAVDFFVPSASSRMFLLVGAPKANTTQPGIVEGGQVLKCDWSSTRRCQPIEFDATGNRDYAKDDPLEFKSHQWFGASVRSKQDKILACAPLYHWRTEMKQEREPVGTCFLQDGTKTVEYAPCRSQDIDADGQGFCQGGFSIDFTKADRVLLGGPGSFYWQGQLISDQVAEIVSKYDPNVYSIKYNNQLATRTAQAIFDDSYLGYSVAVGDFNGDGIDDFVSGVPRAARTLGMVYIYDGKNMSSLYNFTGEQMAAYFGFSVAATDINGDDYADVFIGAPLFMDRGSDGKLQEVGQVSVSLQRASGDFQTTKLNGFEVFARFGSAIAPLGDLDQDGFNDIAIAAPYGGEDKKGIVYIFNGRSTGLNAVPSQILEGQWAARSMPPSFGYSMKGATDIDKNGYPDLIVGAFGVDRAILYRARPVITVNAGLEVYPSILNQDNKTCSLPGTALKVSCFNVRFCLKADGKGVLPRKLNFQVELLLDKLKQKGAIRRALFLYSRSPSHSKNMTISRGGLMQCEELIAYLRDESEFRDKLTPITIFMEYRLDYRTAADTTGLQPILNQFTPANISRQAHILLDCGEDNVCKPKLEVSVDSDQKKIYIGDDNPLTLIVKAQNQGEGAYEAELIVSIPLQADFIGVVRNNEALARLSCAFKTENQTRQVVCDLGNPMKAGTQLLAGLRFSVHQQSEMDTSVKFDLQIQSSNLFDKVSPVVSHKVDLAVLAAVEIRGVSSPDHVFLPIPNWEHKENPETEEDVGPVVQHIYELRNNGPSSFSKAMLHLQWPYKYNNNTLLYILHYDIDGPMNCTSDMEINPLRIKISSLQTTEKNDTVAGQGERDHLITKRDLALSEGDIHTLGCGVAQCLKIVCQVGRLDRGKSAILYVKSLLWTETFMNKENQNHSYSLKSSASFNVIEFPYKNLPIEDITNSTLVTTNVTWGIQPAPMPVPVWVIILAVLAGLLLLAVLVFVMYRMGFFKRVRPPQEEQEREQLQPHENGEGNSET
T2 chain 2: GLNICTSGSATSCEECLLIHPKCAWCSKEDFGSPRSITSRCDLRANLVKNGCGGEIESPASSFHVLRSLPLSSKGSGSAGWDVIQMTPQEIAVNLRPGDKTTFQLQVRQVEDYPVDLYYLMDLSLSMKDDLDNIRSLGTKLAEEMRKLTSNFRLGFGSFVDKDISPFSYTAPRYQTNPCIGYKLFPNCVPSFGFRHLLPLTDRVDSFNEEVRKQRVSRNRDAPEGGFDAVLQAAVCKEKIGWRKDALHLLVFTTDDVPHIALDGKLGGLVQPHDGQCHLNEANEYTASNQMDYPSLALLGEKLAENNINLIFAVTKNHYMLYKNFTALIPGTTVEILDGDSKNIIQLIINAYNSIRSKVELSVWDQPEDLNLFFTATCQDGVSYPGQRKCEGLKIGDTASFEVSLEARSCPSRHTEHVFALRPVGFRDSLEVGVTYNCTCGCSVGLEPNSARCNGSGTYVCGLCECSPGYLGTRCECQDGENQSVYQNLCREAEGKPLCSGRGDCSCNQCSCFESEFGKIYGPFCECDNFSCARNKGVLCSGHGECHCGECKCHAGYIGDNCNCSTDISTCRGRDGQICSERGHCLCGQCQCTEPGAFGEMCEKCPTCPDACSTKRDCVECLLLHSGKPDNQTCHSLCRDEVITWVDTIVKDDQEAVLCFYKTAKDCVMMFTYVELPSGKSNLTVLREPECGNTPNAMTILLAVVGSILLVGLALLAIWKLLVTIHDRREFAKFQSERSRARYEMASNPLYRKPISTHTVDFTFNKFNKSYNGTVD

[5] = target: α8β1 (Homo sapiens); assay: BLI
[6] = target: αvβ1 (Homo sapiens); assay: BLI
[7] = target: αIIbβ3 (Homo sapiens); assay: BLI
[8] = target: T3, αvβ3 (Homo sapiens); assay: BLI
T3 chain 1: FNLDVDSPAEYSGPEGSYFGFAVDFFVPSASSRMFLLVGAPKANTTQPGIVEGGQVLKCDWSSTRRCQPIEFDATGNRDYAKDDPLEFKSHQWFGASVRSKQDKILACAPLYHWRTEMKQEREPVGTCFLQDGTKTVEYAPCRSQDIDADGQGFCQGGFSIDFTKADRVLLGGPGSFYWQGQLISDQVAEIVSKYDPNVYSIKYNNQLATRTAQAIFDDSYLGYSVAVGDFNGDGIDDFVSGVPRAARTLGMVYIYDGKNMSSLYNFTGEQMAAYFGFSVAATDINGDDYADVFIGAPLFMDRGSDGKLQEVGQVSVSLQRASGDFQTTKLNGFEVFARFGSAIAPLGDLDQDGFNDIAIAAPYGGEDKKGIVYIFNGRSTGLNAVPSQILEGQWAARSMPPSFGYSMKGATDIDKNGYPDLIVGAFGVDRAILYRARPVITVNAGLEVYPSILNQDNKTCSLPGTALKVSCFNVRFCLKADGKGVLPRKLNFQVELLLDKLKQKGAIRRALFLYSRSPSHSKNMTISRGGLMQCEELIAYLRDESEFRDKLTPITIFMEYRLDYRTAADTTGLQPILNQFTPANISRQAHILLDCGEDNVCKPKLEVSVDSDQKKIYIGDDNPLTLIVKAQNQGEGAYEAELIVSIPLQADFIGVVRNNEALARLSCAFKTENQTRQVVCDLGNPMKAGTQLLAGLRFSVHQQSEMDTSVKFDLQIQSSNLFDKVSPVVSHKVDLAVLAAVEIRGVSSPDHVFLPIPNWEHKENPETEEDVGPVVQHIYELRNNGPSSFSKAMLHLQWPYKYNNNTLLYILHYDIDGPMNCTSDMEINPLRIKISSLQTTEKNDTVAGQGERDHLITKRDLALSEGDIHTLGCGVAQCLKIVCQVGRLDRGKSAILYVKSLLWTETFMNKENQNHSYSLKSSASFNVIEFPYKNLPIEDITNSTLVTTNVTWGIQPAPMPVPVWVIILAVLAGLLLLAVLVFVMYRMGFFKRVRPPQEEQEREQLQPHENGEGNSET
T3 chain 2: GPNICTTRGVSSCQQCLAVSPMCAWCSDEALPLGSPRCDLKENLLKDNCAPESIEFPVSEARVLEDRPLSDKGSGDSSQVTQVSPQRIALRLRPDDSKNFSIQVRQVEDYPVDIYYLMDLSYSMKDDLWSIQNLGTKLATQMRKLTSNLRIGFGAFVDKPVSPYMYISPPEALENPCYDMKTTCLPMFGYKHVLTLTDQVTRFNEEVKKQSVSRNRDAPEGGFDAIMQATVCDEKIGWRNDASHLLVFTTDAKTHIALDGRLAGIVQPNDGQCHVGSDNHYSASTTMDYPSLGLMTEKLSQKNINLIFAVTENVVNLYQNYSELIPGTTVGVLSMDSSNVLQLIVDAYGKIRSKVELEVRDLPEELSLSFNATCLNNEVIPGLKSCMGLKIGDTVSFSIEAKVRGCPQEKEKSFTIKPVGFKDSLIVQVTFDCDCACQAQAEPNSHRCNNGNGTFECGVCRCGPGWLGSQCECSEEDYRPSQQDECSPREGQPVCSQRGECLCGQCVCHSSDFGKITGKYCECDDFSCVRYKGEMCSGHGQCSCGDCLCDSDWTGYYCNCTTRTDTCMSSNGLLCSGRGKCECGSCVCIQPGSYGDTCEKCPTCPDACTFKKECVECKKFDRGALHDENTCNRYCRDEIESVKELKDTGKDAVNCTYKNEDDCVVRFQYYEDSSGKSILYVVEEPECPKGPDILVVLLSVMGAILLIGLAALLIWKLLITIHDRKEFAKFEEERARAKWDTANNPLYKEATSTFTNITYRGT

[9] = target: recombinant human integrin αvβ8 headpiece (Expi293F) (human, UniProt P06756); assay: ELISA; competition with hLAP1
[10] = target: T4, human integrin αvβ8 (soluble, construct not stated) (human, UniProt P06756 31-1048; P26012 43-684); assay: BLI
T4 chain 1: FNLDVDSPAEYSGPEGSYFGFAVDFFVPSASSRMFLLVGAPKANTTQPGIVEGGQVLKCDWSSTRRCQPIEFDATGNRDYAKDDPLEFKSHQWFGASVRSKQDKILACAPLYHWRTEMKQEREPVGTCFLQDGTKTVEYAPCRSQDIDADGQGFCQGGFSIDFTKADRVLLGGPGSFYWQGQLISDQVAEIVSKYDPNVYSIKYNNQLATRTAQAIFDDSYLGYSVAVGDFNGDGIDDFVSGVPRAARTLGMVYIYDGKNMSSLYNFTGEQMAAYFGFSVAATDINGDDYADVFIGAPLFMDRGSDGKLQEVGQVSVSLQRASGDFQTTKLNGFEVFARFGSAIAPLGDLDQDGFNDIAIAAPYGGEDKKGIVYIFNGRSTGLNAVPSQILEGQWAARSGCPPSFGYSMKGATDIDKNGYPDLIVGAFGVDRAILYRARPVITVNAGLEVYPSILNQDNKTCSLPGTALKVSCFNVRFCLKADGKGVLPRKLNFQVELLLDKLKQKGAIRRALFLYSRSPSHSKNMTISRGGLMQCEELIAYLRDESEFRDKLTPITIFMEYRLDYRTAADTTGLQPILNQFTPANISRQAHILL
T4 chain 2: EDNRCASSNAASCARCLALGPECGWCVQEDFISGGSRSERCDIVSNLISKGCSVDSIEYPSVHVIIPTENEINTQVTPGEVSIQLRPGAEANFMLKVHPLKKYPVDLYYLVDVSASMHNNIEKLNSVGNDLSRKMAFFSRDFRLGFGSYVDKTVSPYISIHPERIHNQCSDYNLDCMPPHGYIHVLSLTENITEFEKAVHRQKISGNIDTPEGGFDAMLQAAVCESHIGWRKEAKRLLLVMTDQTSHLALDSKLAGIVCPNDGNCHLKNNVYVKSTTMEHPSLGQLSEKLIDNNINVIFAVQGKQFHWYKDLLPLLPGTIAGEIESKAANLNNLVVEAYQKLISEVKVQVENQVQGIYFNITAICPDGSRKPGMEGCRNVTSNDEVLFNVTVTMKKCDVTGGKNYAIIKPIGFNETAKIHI

Sequence of α5β1 (Homo sapiens) (chain, as listed by the source, chain 1 of 2): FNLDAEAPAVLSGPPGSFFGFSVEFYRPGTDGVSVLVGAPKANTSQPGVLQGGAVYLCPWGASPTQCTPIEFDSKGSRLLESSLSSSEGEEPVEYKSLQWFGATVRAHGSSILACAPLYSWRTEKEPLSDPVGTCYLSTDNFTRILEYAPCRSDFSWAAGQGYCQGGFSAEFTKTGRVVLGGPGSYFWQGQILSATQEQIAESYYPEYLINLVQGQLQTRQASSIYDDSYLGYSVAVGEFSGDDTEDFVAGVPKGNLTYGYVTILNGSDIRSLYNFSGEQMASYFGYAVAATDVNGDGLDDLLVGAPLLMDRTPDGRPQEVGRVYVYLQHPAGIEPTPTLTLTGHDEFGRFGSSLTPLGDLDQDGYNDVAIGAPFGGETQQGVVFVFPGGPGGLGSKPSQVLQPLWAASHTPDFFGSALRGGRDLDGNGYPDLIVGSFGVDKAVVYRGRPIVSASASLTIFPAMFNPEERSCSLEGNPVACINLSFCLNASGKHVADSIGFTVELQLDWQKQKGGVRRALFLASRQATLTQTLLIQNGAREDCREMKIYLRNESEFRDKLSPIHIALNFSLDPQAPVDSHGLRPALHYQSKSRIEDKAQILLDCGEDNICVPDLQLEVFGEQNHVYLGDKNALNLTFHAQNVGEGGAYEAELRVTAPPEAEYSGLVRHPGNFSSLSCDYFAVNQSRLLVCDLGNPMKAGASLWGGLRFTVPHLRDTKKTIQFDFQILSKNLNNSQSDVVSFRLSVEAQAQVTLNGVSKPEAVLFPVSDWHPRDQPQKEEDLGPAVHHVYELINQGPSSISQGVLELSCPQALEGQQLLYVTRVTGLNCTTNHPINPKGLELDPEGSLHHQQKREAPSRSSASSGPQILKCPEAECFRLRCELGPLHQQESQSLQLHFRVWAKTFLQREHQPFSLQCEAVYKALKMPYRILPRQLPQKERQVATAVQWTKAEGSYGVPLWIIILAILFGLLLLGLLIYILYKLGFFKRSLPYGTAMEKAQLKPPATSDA
Sequence of α5β1 (Homo sapiens) (chain, as listed by the source, chain 2 of 2): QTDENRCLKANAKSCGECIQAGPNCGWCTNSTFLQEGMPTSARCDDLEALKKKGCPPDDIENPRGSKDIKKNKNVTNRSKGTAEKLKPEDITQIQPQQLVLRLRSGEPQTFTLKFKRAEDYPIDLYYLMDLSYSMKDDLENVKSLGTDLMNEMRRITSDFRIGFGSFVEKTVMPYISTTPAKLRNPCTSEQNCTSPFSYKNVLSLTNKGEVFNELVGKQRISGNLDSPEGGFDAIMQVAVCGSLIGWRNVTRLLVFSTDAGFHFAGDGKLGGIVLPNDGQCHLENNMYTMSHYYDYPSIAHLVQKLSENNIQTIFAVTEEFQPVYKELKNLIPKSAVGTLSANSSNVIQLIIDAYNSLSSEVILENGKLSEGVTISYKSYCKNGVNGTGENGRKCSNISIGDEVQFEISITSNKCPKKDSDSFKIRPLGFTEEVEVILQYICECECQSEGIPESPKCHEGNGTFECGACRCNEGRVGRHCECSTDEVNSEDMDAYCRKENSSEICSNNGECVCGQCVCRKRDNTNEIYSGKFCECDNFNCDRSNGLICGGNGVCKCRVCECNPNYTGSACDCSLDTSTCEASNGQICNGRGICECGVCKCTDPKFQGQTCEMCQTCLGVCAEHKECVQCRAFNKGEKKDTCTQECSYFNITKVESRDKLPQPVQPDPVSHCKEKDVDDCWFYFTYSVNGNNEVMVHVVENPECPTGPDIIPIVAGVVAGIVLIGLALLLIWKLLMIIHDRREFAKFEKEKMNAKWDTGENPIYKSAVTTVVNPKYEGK
Sequence of α8β1 (Homo sapiens) (chain, as listed by the source, chain 1 of 2): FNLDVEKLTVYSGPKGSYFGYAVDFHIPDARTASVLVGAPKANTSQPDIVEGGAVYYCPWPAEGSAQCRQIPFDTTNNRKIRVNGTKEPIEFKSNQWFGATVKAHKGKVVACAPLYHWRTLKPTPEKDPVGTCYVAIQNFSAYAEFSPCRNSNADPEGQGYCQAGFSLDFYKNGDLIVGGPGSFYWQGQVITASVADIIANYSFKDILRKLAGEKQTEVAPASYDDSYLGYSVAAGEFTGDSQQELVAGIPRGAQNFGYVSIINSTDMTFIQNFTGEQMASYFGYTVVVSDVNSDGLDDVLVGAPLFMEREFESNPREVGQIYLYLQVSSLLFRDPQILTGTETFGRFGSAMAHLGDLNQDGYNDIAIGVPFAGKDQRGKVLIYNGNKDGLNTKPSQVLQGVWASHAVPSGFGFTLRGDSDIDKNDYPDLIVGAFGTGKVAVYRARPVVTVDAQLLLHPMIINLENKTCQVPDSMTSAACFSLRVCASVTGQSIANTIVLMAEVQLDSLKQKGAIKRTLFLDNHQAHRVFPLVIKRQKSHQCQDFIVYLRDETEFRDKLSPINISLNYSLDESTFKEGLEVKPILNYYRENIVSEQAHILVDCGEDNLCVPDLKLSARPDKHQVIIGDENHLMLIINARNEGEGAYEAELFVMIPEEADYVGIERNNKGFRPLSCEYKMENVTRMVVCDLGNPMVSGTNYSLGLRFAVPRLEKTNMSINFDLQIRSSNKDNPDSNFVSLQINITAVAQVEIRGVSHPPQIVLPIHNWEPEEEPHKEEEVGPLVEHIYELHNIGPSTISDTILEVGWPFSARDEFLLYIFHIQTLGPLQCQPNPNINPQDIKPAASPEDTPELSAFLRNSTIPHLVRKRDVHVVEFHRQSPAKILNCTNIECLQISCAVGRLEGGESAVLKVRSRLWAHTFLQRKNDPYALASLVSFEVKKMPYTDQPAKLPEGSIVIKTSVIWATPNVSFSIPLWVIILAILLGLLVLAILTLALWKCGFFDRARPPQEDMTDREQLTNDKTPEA
Sequence of α8β1 (Homo sapiens) (chain, as listed by the source, chain 2 of 2): as the sequence (chain, as listed by the source, chain 2 of 2) above
Sequence of αvβ1 (Homo sapiens) (chain, as listed by the source, chain 2 of 2, one chain of several): as the sequence (chain, as listed by the source, chain 2 of 2) above
Sequence of recombinant human integrin αvβ8 headpiece (Expi293F) (P06756 whole entry, looked up): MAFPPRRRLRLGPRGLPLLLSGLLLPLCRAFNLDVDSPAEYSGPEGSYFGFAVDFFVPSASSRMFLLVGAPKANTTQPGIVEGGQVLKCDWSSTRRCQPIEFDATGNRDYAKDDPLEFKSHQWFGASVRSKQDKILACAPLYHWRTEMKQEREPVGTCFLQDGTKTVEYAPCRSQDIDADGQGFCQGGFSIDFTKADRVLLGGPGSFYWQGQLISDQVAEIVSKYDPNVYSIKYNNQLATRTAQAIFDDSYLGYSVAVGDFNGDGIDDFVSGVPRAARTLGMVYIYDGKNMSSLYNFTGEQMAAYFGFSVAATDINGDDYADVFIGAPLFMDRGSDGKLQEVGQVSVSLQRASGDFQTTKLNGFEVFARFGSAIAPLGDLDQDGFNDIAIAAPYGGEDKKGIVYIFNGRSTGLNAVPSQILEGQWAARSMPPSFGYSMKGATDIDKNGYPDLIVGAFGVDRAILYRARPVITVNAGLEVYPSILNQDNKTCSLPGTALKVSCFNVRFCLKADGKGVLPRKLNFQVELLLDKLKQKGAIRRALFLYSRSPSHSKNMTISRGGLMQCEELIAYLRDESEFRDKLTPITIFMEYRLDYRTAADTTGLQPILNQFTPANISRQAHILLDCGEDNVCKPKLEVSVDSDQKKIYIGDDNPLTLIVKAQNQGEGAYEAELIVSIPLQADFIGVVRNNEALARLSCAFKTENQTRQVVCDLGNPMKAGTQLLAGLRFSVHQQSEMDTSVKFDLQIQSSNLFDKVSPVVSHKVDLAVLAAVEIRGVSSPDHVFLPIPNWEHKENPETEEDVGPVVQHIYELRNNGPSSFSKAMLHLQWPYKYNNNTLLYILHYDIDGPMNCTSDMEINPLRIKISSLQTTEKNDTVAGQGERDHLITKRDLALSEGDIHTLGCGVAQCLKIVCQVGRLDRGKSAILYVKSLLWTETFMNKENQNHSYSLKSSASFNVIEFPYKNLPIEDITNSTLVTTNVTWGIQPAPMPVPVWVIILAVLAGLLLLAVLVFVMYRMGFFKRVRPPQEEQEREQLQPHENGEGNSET

B1: MAVI (protein)
chain: TKCVVRFNFRGDMAVIALKAVKDHLKKEGPHWNITTHNDDEVYLVVRGIHESDAKRIAKWVESTIPGISVETQCD
modifications: N/C-terminal disulfide staple (Cys3-Cys74); B8_BP_dslf with MAVY motif changed to MAVI
Kd [1]: 1.2 nM

B2: B8_BP-LATY (designed binder)
chain: TKCVVRFNFRGDLATYALKAVKDHLKKEGPHWNITTHNDDEVYLVVRGIHESDAKRIAKWVESTIPGISVETQCD
Kd [1]: > 500 nM

B3: B8_BP_dslf (designed binder)
chain: TKCVVRFNFRGDMAVYALKAVKDHLKKEGPHWNITTHNDDEVYLVVRGIHESDAKRIAKWVESTIPGISVETQCD
IC50 [2]: > 500 nM | Kd [1]: > 1000 nM

B4: B8_BP-LATY (designed binder)
chain: TKCVVRFNFRGDLATYALKAVKDHLKKEGPHWNITTHNDDEVYLVVRGIHESDAKRIAKWVESTIPGISVETQCD
modifications: full-length mature chains taken as on K562 cells; soluble ectodomain possible for BLI; divalent cations, glycosylated
Kd [3]: > 1000 nM | Kd [4]: > 1000 nM | Kd [5]: > 1000 nM | Kd [6]: > 1000 nM | Kd [7]: > 1000 nM | Kd [8]: > 1000 nM

B5: MATI (protein)
chain: TKCVVRFNFRGDMATIALKAVKDHLKKEGPHWNITTHNDDEVYLVVRGIHESDAKRIAKWVESTIPGISVETQCD
modifications: N/C-terminal disulfide staple (Cys3-Cys74); B8_BP_dslf with MAVY motif changed to MATI
Kd [1]: 1.2 nM

B6: B6_BP_dslf (designed binder)
chain: TKCVVRFVFRGDLAELMLRAVKDHLKKEGPHWNITSTNNGKELVVRGIHESDAKRIAKWVEKRFPRVHTETQCD
modifications: full-length mature chains taken as on K562 cells; soluble ectodomain possible for BLI; divalent cations, glycosylated
Kd [3]: > 200 nM | Kd [4]: > 200 nM | Kd [5]: > 200 nM | Kd [6]: > 200 nM | Kd [7]: > 200 nM | Kd [8]: > 200 nM

B7: B6_BP_dslf (designed binder)
chain: TKCVVRFVFRGDLAELMLRAVKDHLKKEGPHWNITSTNNGKELVVRGIHESDAKRIAKWVEKRFPRVHTETQCD
IC50 [9]: ~80 nM | Kd [1]: 0.11 nM | Kd [10]: 580 nM
